We go through six molecules from patent US20050238642A1, “Modified bouganin proteins, cytotoxins and methods and uses thereof” (priority 2004, published 2005).

The test system of one assay is NIH:OVCAR-3. The assay can be described thus: MTS cytotoxicity assay. It is filed as cell-based. Conditions: Ep-CAM-positive NIH:OVCAR-3, MTS, 5 days. Here is the method: The MTS assay used to measure potency was conducted using standard technique known in the art, and as more fully described below in Example 8. […] In the case of VB6-845-CL-de-bouganin, the potency was measured at 1 to 2 nM for CAL 27 and 0.6 to 0.7 nM versus NIH:OVCAR-3.
(§1) The MTS assay was preformed using standard techniques known in the art. More particularly, 50 microlitres of cells (2×10^4 cells/ml) were seeded per well and plates were incubated at 37° C. under 5% CO2 for 2 hr. Then 50 microlitres of spiked drug (i.e. construct to be tested or control) was added to the culture medium at increasing concentrations. Culture medium, with or without cells, was used as positive and negative controls, respectively. The plates were left at 37° C. under 5% CO2 for 5 days. At day 5, the inhibition of cell proliferation was evaluated by adding 20 microlitres of MTS reagent (Promega, Cat# G5430). The plates were further incubated at 37° C. under 5% CO2 for 2 hr and ODs were read at 490 nm using the plate reader spetrophotometer. Background values were subtracted from the sample values obtained for each concentration and the results were expressed as a percent of viable cells. The IC50 values for each drug were calculated for each cell line.

The subject of a further assay is A-375. Description: MTS cytotoxicity assay. Conditions: Ep-CAM-negative A-375, MTS, 5 days. In kind it is cell-based. Here is the method: as §1
(In general: Formazan colour is commonly taken as a measure of viable cells.)

The test system of a further assay is DAUDI. The assay can be described thus: MTS cytotoxicity assay. It is filed as cell-based. Conditions: Ep-CAM-negative DAUDI, 5 days. Here is the method: as §1
The subject of a further assay is HMEC. The assay can be described thus: MTS cytotoxicity assay. It is filed as cell-based, human. Conditions: Ep-CAM-negative HMEC, 5 days. Here is the method:
The tumour cell lines used in this study were purchase from ATCC and were propagated following ATCC's recommendations except for the cell lines C-41, TOV-112D which were grown in RPMI 1640 or DMEM supplemented with 10% FCS, respectively. Tumor cells were harvested at 60-70% confluence with viability over 90%. The human normal mammary epithelial cells (HMEC) were purchased from CAMBREX and maintained in specified media according to the procedure provided by CAMBREX. The cells were harvested at 70% confluence with viability over 90%.
as §1

The target of assay [1] is T1, Ep-CAM (Epithelial Cell Adhesion Molecule) (human, UniProt P16422 24-314).
T1 sequence: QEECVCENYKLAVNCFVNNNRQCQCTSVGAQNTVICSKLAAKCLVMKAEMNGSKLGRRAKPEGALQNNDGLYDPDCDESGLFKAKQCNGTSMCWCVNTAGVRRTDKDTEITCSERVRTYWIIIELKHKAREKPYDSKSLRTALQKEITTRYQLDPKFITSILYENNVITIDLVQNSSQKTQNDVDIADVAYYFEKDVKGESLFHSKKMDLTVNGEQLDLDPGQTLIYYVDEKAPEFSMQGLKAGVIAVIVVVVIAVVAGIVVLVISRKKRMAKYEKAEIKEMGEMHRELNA
The assay can be described thus: cell-based or functional assay.

For assay [2], the target named is T1, Ep-CAM (Epithelial Cell Adhesion …). Description: cell-based or functional assay. The source holds these as a separate data set.
Assay [3] has the same target. Description: flow cytometry, 10 µg/mL VB6-845 on HT-3 cells (cervical), anti-His detection; ± SEM.
The target is the same in assay [4]. The assay can be described thus: flow cytometry, 10 µg/mL VB6-845 on C-4 I cells (cervical), anti-His detection; ± SEM. (Flow cytometry measures light scatter and fluorescence of single cells or particles in a stream.)
The target is the same in assay [5]. The assay can be described thus: flow cytometry, 10 µg/mL VB6-845 on SK-OV-3 cells (ovarian), anti-His detection; ± SEM.
Assay [6] shares this target. Description: flow cytometry, 10 µg/mL VB6-845 on RL95-2 cells (endometrial), anti-His detection; ± SEM.
Assay [7] shares this target. Description: flow cytometry, 10 µg/mL VB6-845 on HEC-1-A cells (endometrial), anti-His detection; ± SEM.
Assay [8] has the same target. Description: flow cytometry, 10 µg/mL VB6-845 on NIH:OVCAR-3 cells (ovarian, Ep-CAM-positive), anti-His detection; ± SEM.
For assay [9] the target is unchanged. Description: flow cytometry, 10 µg/mL VB6-845 on C-33A cells (cervical; Ep-CAM status of the line not stated), anti-His detection; ± SEM.
The target is the same in assay [10]. The assay can be described thus: flow cytometry, 10 µg/mL VB6-845 on TOV-112G cells (ovarian; Ep-CAM status of the line not stated), anti-His detection; ± SEM.
Assay [11] has the same target. The assay can be described thus: flow cytometry, 10 µg/mL VB6-845 on SK-UT-1 cells (endometrial; Ep-CAM status of the line not stated), anti-His detection; ± SEM.
The test system of a further assay is tumor cell lines. The assay can be described thus: VB6-845 Tumor Cell Indications: binding for scFv 845 to tumor cell lines (median fluorescence). An excerpt: Tumor-targeting cytotoxins are composed of the variable region of an antibody linked to a bacterial, fungal or plant toxin. The present study illustrates that the deimmunized bouganin constructs of the invention, comprising deimmunized bouganin linked to a targeting moiety have reduced immunogenicity, while still retaining their biological activity.

Where only a bound is given, the exact number is not on record here.

A word on the IC50: it is the concentration needed to halve the response being measured. Turning to `CN(Cc1cnc2nc(N)nc(N)c2n1)c1ccc(C(=O)N[C@@H](CCC(=O)O)C(=O)O)cc1` [Methotrexate], the IC50 in the assay with NIH:OVCAR-3 (Homo sapiens, 120 h) is greater than 1000 nM; with A-375 (Homo sapiens, 120 h), 6 nM; in the assay with DAUDI (Homo sapiens, 120 h), 3.6 nM; in the assay on HMEC (Homo sapiens, 120 h), 41 nM.

For the molecule Bleomycin Sulfate, the IC50 amounted to 30 nM with NIH:OVCAR-3, 170 nM in the assay on A-375, 22 nM in the assay with DAUDI and 600 nM with HMEC.

For `CO[C@@]12[C@H](COC(N)=O)C3=C(C(=O)C(C)=C(N)C3=O)N1C[C@@H]1N[C@@H]12` [Mitomycin C], the IC50 in the assay with NIH:OVCAR-3 turned out to be 28 nM; with A-375, 14 nM; in the assay with DAUDI it was 2.8 nM; in the assay with HMEC it was 50 nM.

With `N.N.[Cl][Pt][Cl]` [Cisplatin], the IC50 with NIH:OVCAR-3, with A-375, in the assay with DAUDI and in the assay on HMEC was greater than 1000 nM each time.

B1: VB6-845 (Fab)
chain 1: EVQLVQSGPGLVQPGGSVRISCAASGYTFTNYGMNWVKQAPGKGLEWMGWINTYTGESTYADSFKGRFTFSLDTSASAAYLQINSLRAEDTAVYYCARFAIKGDYWGQGTLLTVSSASTKGPSVFPLAPSSKSTSGGTAALGCLVKDYFPEPVTVSWNSGALTSGVHTFPAVLQSSGLYSLSSVVTVPSSSLGTQTYICNVNHKPSNTKVDKKVEPKSCTRHRQPRGWEQLYNTVSFNLGEAYEYPTFIQDLRNELAKGTPVCQLPVTLQTIADDKRFVLVDITTTSKKTVKVAIDVTDVYVVGYQDKWDGKDRAVFLDKVPTVATSKLFPGVTNRVTLTFDGSYQKLVNAAKADRKALELGVNKLEFSIEAIHGKTINGQEAAKFFLIVIQMVSEAARFKYIETEVVDRGLYGSFKPNFKVLNLENNWGDISDAIHKSSPQCTTINPALQLISPSNDPWVVNKVSQISPDMGILKFKSSK
chain 2: HHHHHHDIQMTQSPSSLSASVGDRVTITCRSTKSLLHSNGITYLYWYQQKPGKAPKLLIYQMSNLASGVPSRFSSSGSGTDFTLTISSLQPEDFATYYCAQNLEIPRTFGQGTKVELKRTVAAPSVFIFPPSDEQLKSGTASVVCLLNNFYPREAKVQWKVDNALQSGNSQESVTEQDSKDSTYSLSSTLTLSKADYEKHKVYACEVTHQGLSSPVTKSFNRGEC
notes: also called Fab anti-Ep-CAM-de-bouganin (Bou156) construct
In the case of B1, in [1], the “IC50 nM, MTS cytotoxicity assay, C-4 I cells (VB6-845 70% pure)” value came out at 1.7 nM; the “IC50 nM, MTS cytotoxicity assay, Caov-3 cells (VB6-845 70% pure)” value was determined as 1.3 nM; the “IC50 nM, MTS cytotoxicity assay, HEC-1-A cells (VB6-845 70% pure)” value is 43 nM; the “IC50 nM, MTS cytotoxicity assay, HT-3 cells (VB6-845 70% pure)” value stood at 23 nM. Moreover, in assay [1], the “IC50 nM, MTS cytotoxicity assay, KLE cells (VB6-845 70% pure)” value is greater than 100 nM; the “IC50 nM, MTS cytotoxicity assay, ME-180 cells (VB6-845 70% pure)” value was determined as 37 nM; the “IC50 nM, MTS cytotoxicity assay, MS751 cells (VB6-845 70% pure)” value was 0.43 nM; the “IC50 nM, MTS cytotoxicity assay, NIH-OVCAR-3 cells (VB6-845 70% pure)” value came to 3.4 nM. Besides, in [1], the “IC50 nM, MTS cytotoxicity assay, RL95-2 cells (VB6-845 70% pure)” value was 100 nM and the “IC50 nM, MTS cytotoxicity assay, SK-OV-3 cells (VB6-845 70% pure)” value is greater than 100 nM. Besides, the “IC50 nM, MTS cytotoxicity assay, NIH:OVCAR-3 cells (VB6-845 90% pure)” value in [2] stood at 1 nM. The “fold-increase in MF” value in [3] came to 29.1 fold. Moreover, the “fold-increase in MF” value in [4] was 6.8 fold. For the same molecule, the “fold-increase in MF” value in [5] is 4.3 fold. Besides, in [6], the “fold-increase in MF” value worked out at 4.9 fold. Also, the “fold-increase in MF” value in assay [7] amounted to 42.3 fold. Further, the “fold-increase in MF” value in assay [8] stood at 33.6 fold. Further, the “fold-increase in MF” value in assay [9] worked out at 1.1 fold. Further, the “fold-increase in MF” value in assay [10] is 1.1 fold. Moreover, the “fold-increase in MF” value in assay [11] came to 1.1 fold.

B2: scFv 845: the Ep-CAM antibody of VB6-845, head prints scFv 845 (IgG) (antibody, chains of the INN, looked up, V domains shown)
VH: EVQLVQSGPGLVQPGGSVRISCAASGYTFTNYGMNWVKQAPGKGLEWMGWINTYTGESTYADSFKGRFTFSLDTSASAAYLQINSLRAEDTAVYYCARFAIKGDYWGQGTLLTVSS
VL: DIQMTQSPSSLSASVGDRVTITCRSTKSLLHSNGITYLYWYQQKPGKAPKLLIYQMSNLASGVPSRFSSSGSGTDFTLTISSLQPEDFATYYCAQNLEIPRTFGQGTKVELK
modifications: scFv
Turning to B2, the “Binding for scFv 845 (IgG): mean fold-increase in median fluorescence over the control antibody” value with tumor cell lines (Bladder, 14 cell lines) is listed as 59.6 fold; in the assay on tumor cell lines (Cervical, 3 cell lines), 37.5 fold; in the assay on tumor cell lines (Endometrial, 1 cell line), 23.8 fold; in the assay with tumor cell lines (Esophageal, 3 cell lines), 72.4 fold; in the assay on tumor cell lines (Gastric, 3 cell lines) it was 148.9 fold; in the assay with tumor cell lines (Head and Neck, 2 cell lines) it was 11.4 fold. The “Binding for scFv 845 (IgG): mean fold-increase in median fluorescence over the control antibody” value came out at 9.4 fold in the assay with tumor cell lines (Kidney, 3 cell lines); 16.4 fold with tumor cell lines (Lung, 3 cell lines); 1.6 fold with tumor cell lines (Melanoma, 3 cell lines); 84.1 fold in the assay with tumor cell lines (Ovarian, 2 cell lines); 5.5 fold in the assay with tumor cell lines (Pancreas, 3 cell lines); 50.1 fold with tumor cell lines (Prostate, 5 cell lines).
